Laboratory results: the DeepSol protein solubility set

Assay: soluble on expression in E. coli; label from the status in PepcDB or PDB records

Sequence	soluble on expression in E. coli
MKHESTKIPLVIFMHIPKTGGITLRNILDQQYRSEHILRLPQKNKLDNLLQKKGANIKKLQCVYGHHRFGVHEYFQQPFTYITMLRHPVERIISTYYFILQNERNRMHQKVKPLTFEQFVQSTDPDLQVPLTNHQTRYLSGERKPNLNKALQHMDTHFSVVGITELYNESLFIMKKKLGWDHISYQKKNVTKKRKRQTDIGLDTIEIIKRKNPLDLHLYETAKEKLQEHIKRLDSGARKELQQFLQDQNGFGPHGMAGDPLEHHHHHH	soluble
MGSDKIHHHHHHMNAALWISKTGLDAQTKDIAVISNNLANASTIGFKKSRAVFEDLLYQNINQPGGRTAQDTEAPSGLMLGAGTKVVATQKIHTQGDMITSDNALDLMIQGEGFFEIQMPDGSSAYSRNGQFTMDDEGNMVTPGAGYMIQPQVTIPEDALSIIVSQDGEVSVTLQGQPDPAVVGQINLINFVNPTGLQPIGQNLYTETAVSGAPQEGVPGLEGYGMLVQGALETSNVNTTEELVNLIESQRVYEMNSKVISAVDEMLSYINQQM	not soluble
MSLGTGRNGGRAIVATGLGQCCWDTLAVVDSYPSPDSKAEAAVWAEQAGGPTATALVALARLGIPCRFAGVVGDDDAGSRIRQALDSEGVDGAFLVTRRRGASQRAFIMIERGSGRRTIVWRRPTGDPLDPREVPDAFLAGSSLLLLDGLMADASLHAAGRARSLGIPVMVDAGRMRPGMLDITRQCDYVVAAEQFFLDLGWDRTPEHFRGLAADLGAPVVTVTLGAAGSLTWSGHEPFHVPAFTVDAVDTTGAGDVFHGGYGYGILQGWSVRETVVFASAMAAMKCRQVGAQQGIPRLPDVLEFLTRRTITVLSNPQTEGHHHHHH	soluble
MTGILDSVNQRTQLVGQNRLELLTFRLMGRQRYGINVFKVKEVLQCPKLTSMPNLHPLVKGIAHIRGHTVSVIDLSLAIGGRPTTDIDKCFVVIAEFNRTIQAFLVSSVERIINMHWEAILPPPDGAGKAHYLTAVTNIDNELVEILDVEKILAEIAPVDETMDSTIGEEIAQAEQEKPIVR	not soluble
MSLTYLIKVLELFSGVGSFSISLNTLGIEHEIVGFSETRKTATQLFCKLHNKKESENLGDVRNVSAKDLDVDLLVFGSPCQSFTRAGKQGGGLKGSDTRSALMWEAVRIMEECKPKWIVWENVPDAISRKNMPNFQNYMDELDSLNYNTYYKVLNAHELGSAQKRKRLFSISIRKDIDNGKFEFLDLTREPKHLETYLENNDQPDIANEHIHSHLILGKDENGYKIKNGTKKGYLYANNGDGIDLAYVTSKARRGRVQVKACQTIMRGKTLGTINDGVLRFYSPREYWRLQEMPDELYKHVEACNFKPSTAYDVVGGVINQLHLKTVFLSLKKAFNEGHHHHHH	not soluble
MLSAAAFAADKVVKLPKPNLNRTGTVMKALSERQSTREYASKALTLADLSDLLWAANGINRSDAGKRTAPSAMNKQDVDVYVILSEGSYLYDAKNHQLNLIAEGDYRGAVAGGQAFVKTAPVSLVLISDVSRFGDAQKIQNQLMGAMDAGIVSQNISIFCSAAKLATVPRASMDAAQLKKVLKLKDSQIPMMNHPVGYFK	not soluble
MYSYKHPIYCANPVLSGQKIIELPPMNVPFSTYYEVYVTVQDHIPISSFVSMDLIMKNDNYSGGNFQVYSKDVSGILASHSNHFSPVTYSMQLQYEYKNWAEEDTQVRVYSDRLPPYWLPYCD	not soluble
MAVPEGNSWTYTAASASITAPAQLVGNVGELQGAGSAVIWNVDVPVTGEYRINLTWSSPYSSKVNTLVMDGTALSYAFAEATVPVTYVQTKTLSAGNHSFGVRVGSSDWGYMNVHSLKLELLGGLTIRSPANLEHHHHHH	soluble
ASIYKNKKSHEQLSALKGSFCRNQFPGQSEVEHLTKVTGLSTREVRKWFSDRRYHCRNLKGSR	soluble
MKKFALATIFALATTSAFAGFNGNNSQGGFQQAAPAAISVKQALSAADNSMITLVGNITQQIDDDEFWFTDGTGQIKIEIKKRVWNGLNVDSKDKVKIYGKLDNEVFEKAELDVLRIEKAE	not soluble
MAHHHHHHMSPVIALHEDLQKRLEEYRSTRGFSPVKWIEQKCAALNEYMASHGLKVCVTSVSGGIDSAVVLALCSRAMRMPNSPIVRNVGICQPICSSAWALARGRENIQSCGALEVIVDQTELYKQLSRIVETAVGIDGQNFARGQLRSYMRTPVAYYVAQLYSQEGNAAIVMGTGNMDEDGYLAYFCKAGDGVVDVQLISDLHKSEVFRVARELGVPANTLQASPSADLWEGQTDEEELGFPYDFVELYTGWCLQLSDEERQSFLHSLSSDARQQYEKYKDACENTHRRNAHKLRGPINL	soluble
